Earlier results as cited in article PMC11335090.

Target: AXL (Homo sapiens) (UniProt P30530)
UniProt P30530, sequence (P30530 26-451): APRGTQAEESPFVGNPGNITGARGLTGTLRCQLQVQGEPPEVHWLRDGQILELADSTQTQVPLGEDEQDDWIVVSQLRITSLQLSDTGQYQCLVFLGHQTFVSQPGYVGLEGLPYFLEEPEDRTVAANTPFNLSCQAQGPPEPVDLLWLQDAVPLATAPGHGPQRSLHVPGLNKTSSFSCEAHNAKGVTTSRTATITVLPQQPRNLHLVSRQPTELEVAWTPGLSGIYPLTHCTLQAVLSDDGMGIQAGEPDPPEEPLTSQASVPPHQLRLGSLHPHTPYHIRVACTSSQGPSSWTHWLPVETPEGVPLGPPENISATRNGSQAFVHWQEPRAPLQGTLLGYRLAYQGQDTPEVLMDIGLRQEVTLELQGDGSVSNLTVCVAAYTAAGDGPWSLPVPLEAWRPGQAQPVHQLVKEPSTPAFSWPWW

In the case of GAS6 (from UniProt Q14393), the Kd is given as 0.032 nM.
